Data on 1 molecule can be found in article PMC12262184, “Structural insights into transcriptional regulation by the helicase RECQL5” (Nature Structural & Molecular Biology, 2025).

In this assay the target is RPB1 subunit of human RNA polymerase II (human (endogenous in HeLa), UniProt P24928 1-1970). Kind of assay: cryo-EM structure; EC_(REC-Apo): Pol II on anti-RPB1-protein G resin incubated with tenfold excess of nucleic acid scaffold, then tenfold excess of RECQL5_(1–620)-D157A, no nucleotide; eluted with RPB1 triheptapeptide repeat; crosslinked with 0.02% glutaraldehyde; graphene oxide grids. The conditions noted are these: both partners purified.

B1: RECQL5_(1–620)-D157A (domain or fragment)
chain: MSSHHTTFPFDPERRVRSTLKKVFGFDSFKTPLQESATMAVVKGNKDVFVCMPTGAGKSLCYQLPALLAKGITIVVSPLIALIQDQVDHLLTLKVRVSSLNSKLSAQERKELLADLEREKPQTKILYITPEMAASSSFQPTLNSLVSRHLLSYLVVAEAHCVSQWGHDFRPDYLRLGALRSRLGHAPCVALTATATPQVQEDVFAALHLKKPVAIFKTPCFRANLFYDVQFKELISDPYGNLKDFCLKALGQEADKGLSGCGIVYCRTREACEQLAIELSCRGVNAKAYHAGLKASERTLVQNDWMEEKVPVIVATISFGMGVDKANVRFVAHWNIAKSMAGYYQESGRAGRDGKPSWCRLYYSRNDRDQVSFLIRKEVAKLQEKRGNKASDKATIMAFDALVTFCEELGCRHAAIAKYFGDALPACAKGCDHCQNPTAVRRRLEALERSSSWSKTCIGPSQGNGFDPELYEGGRKGYGDFSRYDEGSGGSGDEGRDEAHKREWNLFYQKQMQLRKGKDPKIEEFVPPDENCPLKEASSRRIPRLTVKAREHCLRLLEEALSSNRQSTRTADEADLRAKAVELEHETFRNAKVANLYKASVLKKVADIHRASKDGQPYDM
notes: RECQL5 helicase, human, residues 1-620 (helicase D1 and D2 subdomains, RQC domain, IRI module with αN helix and KIX domain); lacks the unstructured region and the SRI domain; The purification is described for GST-tagged RECQL5_(1–620) in general; Used without nucleotide in EC_(REC-Apo); also called truncated RECQL5 construct; source: E. coli BL21-CodonPlus (DE3)-RIL, purified (glutathione …)
For B1, the binding result was “binds”.
